The source of these data is publication PMC5861452.

In general, Kd refers to the concentration at which binding is half-saturated. Lower therefore signals higher affinity.

In this series the target is NS5A domain 1+ (WT) (Hepatitis C virus (replicon plasmid …, UniProt Q9WMX2 2005-2221)). Put plainly: fluorescence polarization. (In general: Polarisation of emitted light reports the rotation of a fluorescent probe.)
Sequence of NS5A domain 1+ (WT) (Hepatitis C virus (Q9WMX2 2005-2221): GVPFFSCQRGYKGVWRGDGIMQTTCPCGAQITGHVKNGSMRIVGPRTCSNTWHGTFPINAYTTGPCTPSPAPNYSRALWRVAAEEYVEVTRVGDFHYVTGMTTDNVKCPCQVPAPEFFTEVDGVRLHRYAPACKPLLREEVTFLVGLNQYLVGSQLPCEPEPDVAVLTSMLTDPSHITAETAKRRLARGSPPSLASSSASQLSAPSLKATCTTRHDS
For the molecule UGUUUGUUUGUCCC (ssRNA) [RNA 3 (minimal GRE)], the equilibrium dissociation constant (Kd) is 100 ± 10 nM.

In turn, GGGUGGGGGUGG (ssRNA) [RNA 2 (consensus derived)] registered a Kd of 20 ± 2.7 nM.

For the molecule AAAAAAAAAAAAAAA (ssRNA) [RNA 6 (A15)], the equilibrium dissociation constant (Kd) was 1000 ± 150 nM.

On to GGCUGAGGCAGG (ssRNA) [RNA 1 (consensus sequence 1)], for which binding was put at a Kd of 10 ± 1.5 nM.
